Results taken from publication doi:10.1101/2023.12.15.571702.

Biological target: piperazate synthase PipS, C-terminal His6-tagged (holo-PipS) (Streptomyces griseus subsp. griseus NRRL F-5144)
Experiment: crystal structure

Substance: piperazate synthase PipS, C-terminal His6-tagged (holo-PipS) (enzyme)
- stoichiometry N: 2
